Measured values taken from patent US12559863B2, “Macrocyclic modulators of disease associated protein misfolding and aggregation” (RESQ BIOTECH, priority 2017, dated 2026).

Assays:
SOD1(A4V) = target: T1, SOD1(A4V) (Homo sapiens, UniProt P00441, A5V); assay: Circular dichroism of isolated SOD1(A4V) with cyclic peptide; assay type: biochemical; conditions: 40 μM SOD1(A4V), 25° C., 90 d
T1 construct: polyHis; made in house; host or cells: E. coli Origami 2(DE3)
Method: SOD1 or mutants thereof were overexpressed from the appropriate pET-SOD1 or PASK-SOD1 vectors in E. coli Origami 2(DE3) cells in LB medium containing 50 μg/mL kanamycin (for pET-SOD1) or 100 μg/mL ampicillin (for pASK-SOD1), 200 μM CuCl2, and 200 μM ZnCl2 by the addition of 0.01 mM IPTG (for pET-SOD1) or 0.2 μg/mL anhydrotetracycline (aTc) (for pASK-SOD1), either at 37° C. for 2-3 h or at 18° C. for about 16 h. Origami 2(DE3) cells were utilized in order to provide an oxidizing cytoplasmic environment in order to promote correct formation of disulfide bonds, which are required for proper SOD1 folding and function. Under these conditions, bacterially produced SOD1 is produced in dimeric and enzymatically active form, while it simultaneously co-exists with misfolded, soluble and insoluble SOD1 oligomeric/aggregated species (FIG. 3C). […]
Appropriate amounts of synthetic cyclic peptides were added to either 40 μM SOD1(A4V) or 50 μM Aβ solutions at the desired cyclic peptide:target protein molar ratio. SOD1(A4V) structural changes were monitored for 90 d at 25° C., under quiescent conditions. Aβ structural changes were monitored for 30 d at 33° C. under quiescent conditions. CD spectra in the range 190-260 nm were recorded on a JASCO J-715 spectropolarimeter (Jasco Co., Japan) using quartz cuvettes with 1 mm path length. […]

SOD1(A4V)-GFP = target: T2, SOD1(A4V)-GFP (Homo sapiens, UniProt P00441, A5V); assay: Fluorescence of E. coli cells co-expressing SOD1(A4V)-GFP and cyclic peptide; assay type: cell-based; conditions: co-expression of cyclic peptide; compared to random cyclic peptides from initial library
T2 construct: polyHis; expressed in transfected cells; host or cells: E. coli Origami 2(DE3) (BL21(DE3) for the FACS screen)
T2 sequence (P00441 whole entry A5V): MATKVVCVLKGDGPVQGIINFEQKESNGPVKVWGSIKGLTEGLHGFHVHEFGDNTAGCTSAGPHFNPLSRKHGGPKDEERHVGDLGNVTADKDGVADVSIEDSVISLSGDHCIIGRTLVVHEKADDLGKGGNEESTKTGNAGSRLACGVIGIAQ
Text: Electrocompetent E. coli BL21(DE3) cells (Novagen, USA) carrying either the expression vector pETSOD1(A4V)-GFP, which produces SOD1(A4V)-GFP under control of the strong bacteriophage T7 promoter, or pETAβ42-GFP, which produces Aβ42-GFP under control of the T7 promoter, were co-transformed with the combined pSICLOPPS-NuX1X2X3-X5 vector library. Approximately 10^8 transformants carrying both the vector library and either pETSOD1(A4V)-GFP or pETAβ42-GFP vectors were harvested, pooled together, and grown in Luria-Bertani (LB) liquid medium containing either 0.005% (pETSOD1(A4F)-GFP) or 0.002% (pETAβ42-GFP) L-arabinose—the inducer of cyclic peptide production—at 37° C. with shaking. When the optical density at 600 nm (OD600) of the bacterial culture was about 0.5, 0.01 (pETSOD1(A4F)-GFP) or 0.1 (pETAβ42-GFP) mM isopropyl-β-D-thiogalactoside (IPTG) was added to the medium to induce overexpression of the reporter. […] The isolated cells were re-grown and screened for additional rounds in an identical manner until the desired enrichment in high-fluorescence clones was achieved.
For SOD1 or SOD1-GFP production, BL21(DE3) (Novagen, USA) or Origami 2(DE3) cells (Novagen, USA) were transformed with the corresponding SOD1- or SOD1-GFP-encoding vector, either with the appropriate pSICLOPPS vector or alone. […]
Bacterial cells corresponding to 1 mL culture with OD600=1 were harvested by centrifugation and re-suspended in 100 μL phosphate-buffered saline (PBS), transferred to a 96-well FLUOTRAC 200 plate (Greiner Bio One International, Austria), and their fluorescence was measured using a TECAN Safire II-Basic plate reader (Tecan, Austria). Excitation was set at 488 nm and emission was measured at 510 nm.

Aβ42 = target: T3, Aβ42 (Homo sapiens, UniProt P05067); assay: Circular dichroism of Aβ42 with cyclic peptide; assay type: biochemical; conditions: 50 μM Aβ, 33° C., 30 d
T3 construct: one of the secondary products yields a 42-amino-acid-long peptide (Aβ42); purchased Eurogentec, Belgium; host or cells: chemical synthesis
Method: Synthetic Aβ40 and Aβ42 peptides were gently dissolved without vortexing in doubly deionized water to a final concentration of 100 μM. These solutions were then diluted by PBS addition (10 mM, pH 7.33) to achieve a final Aβ concentration of 50 μM.
Appropriate amounts of synthetic cyclic peptides were added to either 40 μM SOD1(A4V) or 50 μM Aβ solutions at the desired cyclic peptide:target protein molar ratio. SOD1(A4V) structural changes were monitored for 90 d at 25° C., under quiescent conditions. Aβ structural changes were monitored for 30 d at 33° C. under quiescent conditions. CD spectra in the range 190-260 nm were recorded on a JASCO J-715 spectropolarimeter (Jasco Co., Japan) using quartz cuvettes with 1 mm path length. Each reported spectrum is the average of three scans at a rate of 100 nm·min^−1 and a resolution of 0.5 nm.

T1 sequence (P00441 whole entry A5V): as above

cyclo-TWSVW (cyclic) [SOD1C5-4]
time-dependent conformational transition indicative of SOD1(A4V) aggregation (SOD1(A4V)): significantly delayed
interaction with SOD1(A4V) by CD spectroscopy (SOD1(A4V); 1:1 and 5:1 peptide:SOD1(A4V)): interacts with SOD1(A4V)
SOD1(A4V)-GFP fluorescence of E. coli cells (SOD1(A4V)-GFP): highest levels of cellular SOD1(A4V)-GFP fluorescence
effect on aggregation process of Aβ42 (CD) (Aβ42): did not have any effect
